Our source for the EC50 (read off the curve), binding result and Kd values is patent US20140046032A1 (Sanofi, published 2014).

Test [1] has as its target lectin Maackia amurensis (MAA) (Maackia amurensis). Description: enzyme-linked lectin assay (ELLA) with Maackia amurensis lectin (MAA, α-2,3 sialic acid); signal against µg of mAb, linear axis.
Test [2] has as its target T1, recombinant murine FcγRI (murine, UniProt P26151 25-297).
T1 construct: Bought
T1 sequence (looked up): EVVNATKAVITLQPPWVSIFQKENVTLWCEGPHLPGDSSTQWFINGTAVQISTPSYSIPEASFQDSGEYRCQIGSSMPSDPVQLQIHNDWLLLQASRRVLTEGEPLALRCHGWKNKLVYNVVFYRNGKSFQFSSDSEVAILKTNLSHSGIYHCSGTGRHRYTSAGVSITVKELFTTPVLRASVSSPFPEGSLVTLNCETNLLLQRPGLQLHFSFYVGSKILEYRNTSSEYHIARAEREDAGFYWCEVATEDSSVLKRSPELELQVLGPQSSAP
Description: SPR, Biacore 3000. Background: Surface plasmon resonance follows binding to a sensor surface in real time, without labels.

For test [3], the target named is T2, recombinant murine FcγRIV (murine, UniProt A0A0B4J1G0 21-203).
T2 construct: Bought
T2 sequence: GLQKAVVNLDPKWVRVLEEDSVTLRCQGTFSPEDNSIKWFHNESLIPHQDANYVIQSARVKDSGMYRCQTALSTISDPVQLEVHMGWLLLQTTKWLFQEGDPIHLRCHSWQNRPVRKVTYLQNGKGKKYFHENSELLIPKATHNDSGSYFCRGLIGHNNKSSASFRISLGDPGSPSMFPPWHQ
Description: SPR, Biacore 3000.

In test [4] the target is T3, recombinant murine FcγRIIb (murine, UniProt P08101 30-207, limits assumed).
T3 construct: Bought
T3 sequence (looked up): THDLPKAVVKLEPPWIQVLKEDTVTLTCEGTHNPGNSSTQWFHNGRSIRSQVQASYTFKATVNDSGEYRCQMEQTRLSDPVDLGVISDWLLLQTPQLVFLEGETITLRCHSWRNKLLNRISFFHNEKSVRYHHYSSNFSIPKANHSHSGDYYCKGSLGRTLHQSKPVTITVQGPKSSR
Description: SPR, Biacore 3000.

Test [5] deals with T4, recombinant murine FcγRIII (murine, UniProt P08508 31-215).
T4 construct: Bought
T4 sequence (looked up): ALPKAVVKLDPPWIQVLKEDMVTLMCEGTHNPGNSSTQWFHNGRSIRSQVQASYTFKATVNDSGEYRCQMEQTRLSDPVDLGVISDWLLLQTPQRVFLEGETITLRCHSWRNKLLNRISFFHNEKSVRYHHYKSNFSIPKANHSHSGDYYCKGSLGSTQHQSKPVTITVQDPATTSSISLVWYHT
Description: SPR, Biacore 3000.

In general, Kd refers to the constant that tells how readily two partners part at equilibrium.

Sequence of lectin Maackia amurensis (MAA) (Maackia amurensis) (P0DKL3 30-278): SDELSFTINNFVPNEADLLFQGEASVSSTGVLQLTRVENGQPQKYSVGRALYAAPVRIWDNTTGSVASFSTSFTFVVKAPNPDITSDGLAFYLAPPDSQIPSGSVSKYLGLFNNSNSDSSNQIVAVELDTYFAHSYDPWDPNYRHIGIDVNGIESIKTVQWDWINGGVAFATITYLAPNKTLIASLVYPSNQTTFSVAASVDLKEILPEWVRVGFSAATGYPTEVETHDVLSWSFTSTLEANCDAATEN

For fetuin, the EC50 (read off the curve) in test [1] stood at 0.2 µg.

B1: α-2,6 sialylated antiAbeta-13C3_D257A mAb (co-expressed with SIAT1 and B4GT1) (antibody, mouse IgG1, kappa)
heavy: QVQLQQSGPELVRPGVSVKISCKGSGYTFTDYAMHWVKQSHAKSLEWIGVISTKYGKTNYNQKFKGKATMTVDKSSSTAYMELARLTSEDSAIYYCARGDDGYSWGQGTSVTVSSAKTTPPSVYPLAPGSAAQTNSMVTLGCLVKGYFPEPVTVTWNSGSLSSGVHTFPAVLQSDLYTLSSSVTVPSSTWPSETVTCNVAHPASSTKVDKKIVPRDCGCKPCICTVPEVSSVFIFPPKPKDVLTITLTPKVTCVVVAISKDDPEVQFSWFVDDVEVHTAQTQPREEQFNSTFRSVSELPIMHQDWLNGKEFKCRVNSAAFPAPIEKTISKTKGRPKAPQVYTIPPPKEQMAKDKVSLTCMITDFFPEDITVEWQWNGQPAENYKNTQPIMDTDGSYFVYSKLNVQKSNWEAGNTFTCSVLHEGLHNHHTEKSLSHSPG
light: DVVMTQTPLSLPVSLGDQASISCRSGQSLVHSNGNTYLHWYLQKPGQSPKLLIYTVSNRFSGVPDRFSGSGSGSDFTLKISRVEAEDLGVYFCSQNTFVPWTFGGGTKLEIKRADAAPTVSIFPPSSEQLTSGGASVVCFLNNFYPKDINVKWKIDGSERQNGVLNSWTDQDSKDSTYSMSSTLTLTKDEYERHNSYTCEATHKTSTSPIVKSFNRNEC
modifications: Fc N-glycan essentially α-2,6-sialylated, G2F/G2F + 4 NeuNAc per mAb (very high sialic acid content)
notes: Small-scale batch LP10094, large-scale batch LP10104 and a CHO-produced batch are treated as this one molecule; also called antiAbeta_13C3_D257A batch LP10104; batch LP10094
Turning to B1, the binding result in test [2] and in test [3] was “no binding” throughout.

B2: antiAbeta_13C3_D257A mAb produced without co-expression of SIAT1 and B4GT1 (batch LP10116, low sialic acid content) (antibody, mouse IgG1, kappa)
heavy: QVQLQQSGPELVRPGVSVKISCKGSGYTFTDYAMHWVKQSHAKSLEWIGVISTKYGKTNYNQKFKGKATMTVDKSSSTAYMELARLTSEDSAIYYCARGDDGYSWGQGTSVTVSSAKTTPPSVYPLAPGSAAQTNSMVTLGCLVKGYFPEPVTVTWNSGSLSSGVHTFPAVLQSDLYTLSSSVTVPSSTWPSETVTCNVAHPASSTKVDKKIVPRDCGCKPCICTVPEVSSVFIFPPKPKDVLTITLTPKVTCVVVAISKDDPEVQFSWFVDDVEVHTAQTQPREEQFNSTFRSVSELPIMHQDWLNGKEFKCRVNSAAFPAPIEKTISKTKGRPKAPQVYTIPPPKEQMAKDKVSLTCMITDFFPEDITVEWQWNGQPAENYKNTQPIMDTDGSYFVYSKLNVQKSNWEAGNTFTCSVLHEGLHNHHTEKSLSHSPG
light: DVVMTQTPLSLPVSLGDQASISCRSGQSLVHSNGNTYLHWYLQKPGQSPKLLIYTVSNRFSGVPDRFSGSGSGSDFTLKISRVEAEDLGVYFCSQNTFVPWTFGGGTKLEIKRADAAPTVSIFPPSSEQLTSGGASVVCFLNNFYPKDINVKWKIDGSERQNGVLNSWTDQDSKDSTYSMSSTLTLTKDEYERHNSYTCEATHKTSTSPIVKSFNRNEC
modifications: Fc N-glycan G0F/G0F, low sialic acid content
notes: also called low sialylated antiAbeta-13C3_D257A
Regarding B2, the binding result in test [2] and in test [3] was “no binding” each time.

B3: antiAbeta_13C3 mAb (murine, batch LP09009, low sialic acid content) (antibody, mouse IgG1, kappa)
heavy: QVQLQQSGPELVRPGVSVKISCKGSGYTFTDYAMHWVKQSHAKSLEWIGVISTKYGKTNYNQKFKGKATMTVDKSSSTAYMELARLTSEDSAIYYCARGDDGYSWGQGTSVTVSSAKTTPPSVYPLAPGSAAQTNSMVTLGCLVKGYFPEPVTVTWNSGSLSSGVHTFPAVLQSDLYTLSSSVTVPSSTWPSETVTCNVAHPASSTKVDKKIVPRDCGCKPCICTVPEVSSVFIFPPKPKDVLTITLTPKVTCVVVDISKDDPEVQFSWFVDDVEVHTAQTQPREEQFNSTFRSVSELPIMHQDWLNGKEFKCRVNSAAFPAPIEKTISKTKGRPKAPQVYTIPPPKEQMAKDKVSLTCMITDFFPEDITVEWQWNGQPAENYKNTQPIMDTDGSYFVYSKLNVQKSNWEAGNTFTCSVLHEGLHNHHTEKSLSHSPG
light: DVVMTQTPLSLPVSLGDQASISCRSGQSLVHSNGNTYLHWYLQKPGQSPKLLIYTVSNRFSGVPDRFSGSGSGSDFTLKISRVEAEDLGVYFCSQNTFVPWTFGGGTKLEIKRADAAPTVSIFPPSSEQLTSGGASVVCFLNNFYPKDINVKWKIDGSERQNGVLNSWTDQDSKDSTYSMSSTLTLTKDEYERHNSYTCEATHKTSTSPIVKSFNRNEC
modifications: Fc N-glycan with low sialic acid content
notes: Murine IgG1 heavy chain, murine Ckappa light chain; also called antiAbeta-13C13 mAb; original antiAbeta-13C3
For the molecule B3, the binding result in test [2] and in test [3] was “no binding” throughout. Moreover, the Kd in test [4] turned out to be 354 nM; in test [5], 471 nM.
